According to the DeepSol protein solubility set:

Test: soluble on expression in E. coli; label from the status in PepcDB or PDB records

| Sequence | soluble on expression in E. coli |
| --- | --- |
| MAALRYAGLDDTDSEDELPPGWEERTTKDGWVYYANHTEEKTQWEHPKTGKRKRVAGDLPYGWEQETDENGQVFFVDHINKRTTYLDPRLAFTVDDNPTKPTTRQRYDGSTTAMEILQGRDFTGKVVLVTGANSGIGFETAKSFALHGAHVILACRNLSRASEAVSRILEEWHKAKVEAMTLDLAVLRSVQHFAEAFKAKNVSLHVLVCNAGTFALPWGLTKDGLETTFQVNHLGHFYLVQLLQDVLCRSSPARVIVVSSESHRFTDINDSSGKLDLSRLSPPRSDYWAMLAYNRSKLCNILFSNELHRRLSPRGVTSNAVHPGNMMYSAIHRNSWVYKLLFTLARPFTKSMQQGAATTVYCAVAPELEGLGGMYFNNCCRCLPSEEAQSEETARALWELSERLIQDRLGSPSS | soluble |
| MGSDKIHHHHHHENLYFQGMSRKVILTCAVTGNAPFNPKHPSMPITPAQIADACVEAAKAGASVAHIHVRDPKTGGGSRDPVLFKEVVDRVRSSGTDIVLNLTCGLGAFLLPDPEDESKALPESDVVPVAERVKHLEDCLPEIASLDITTGNQVEGKLEFVYLNTTRTLRAMARRFQELGIKPELEVFSPGDILFGKQLIEEGLIDGVPLFQMVLGVLWGAPASTETMIYQRNLIPANAQWAAFGIGRDQMPMMAQAALLGGNVRVGLEDNLYLSRGVFATNGQLVERARTVIEHLGMSVATPDEARDIMGLSRPA | soluble |
| HHHHHHSSGLVPRGSHMTAQTVTGAVAAAQLGATLPHEHVIFGYPGYAGDVTLGPFDHAAALASCTETARALLARGIQTVVDATPNGCGRNPAFLREVSEATGLQILCATGFYYEGGGATTYFKFRASLGDAESEIYEMMRTEVTEGIAGTGIRAGVIKLASSRDAITPYEQLFFRAAARVQRETGVPIITHTQEGQQGPQQAELLTSLGADPARIMIGHMDGNTDPAYHRETLRHGVSIAFDRIGLQGMVGTPTDAERLSVLTTLLGEGYADRLLLSHDSIWHWLGRPPAIPEAALPAVKDWHPLHISDDILPDLRRRGITEEQVGQMTVGNPARLFG | soluble |
| MQHQTLYQDDFVEIFEQDNEVFIKTFKPGLPPKQLNEILSSLPQIQITSFNCLNDALNIVSPSPQKFGRLKERIAITVTPDELKAFVTFNLPREELDIKNRENLIKETYQVLKKKNINFGIKKELFFGDLESGKKYLIAEGVPAVDGEDCKIRMYELEEPRPEIREDGKANYYELKLINKVKAGDWLGERIDATEGFPGKTVYGTTIHPVRGKNYPLSYDKNTVYEVVQNKKVVLYSKIDGAVHYDGNKITVSNHLEIDGDVDFKTGNIIFDGYVTIKGTVTDGFYVEATKDIEINSPLGLGNVKGIKSREGSIYIKGGISSKSFSEISARKNIYTKFVDNVKLSCGGTAHIGFYCINSMVEAKEVFIESIKGNIMGGQVKAEVKITVPVLGSPLEPRTVLILTGFDRKKLSKMLEDIVDRIDRIKEEQMDIKLYLSKQDPFKEMTSRETAEYNSKMQRMSELKAELKSLEEEKKNIARYLKTKGEGEIAITKKVYPNCSIIIKNIQTEIKEPCLATTFFAADGEIKRV | soluble |
| SNAMELEQKLNLLNDLIVREIVNPLPPPYKVGVDLGTADIVLVVTDQEGIPVAGALKWASVVKDGLVVDYIGAIQIVRELKAKVERLLGSELFQAATAIPPGTVGRNAEACGHVVAGAGLELVTLVDEPVAAARALGINDGIVVDIGGGTTGIAVIEKGKITATFDEPTGGTHLSLVLAGSYKIPFEEAETIKKDFSRHREIMRVVRPVIEKMALIVKEVIKNYDQTLPVYVVGGTAYLTGFSEEFSRFLGKEVQVPIHPLLVTPLGIALFG | soluble |
| MGSDKIHHHHHHMFNNHEIDTILSTLRMEADPSLHPLFEQFEKFYEEKLWFQLSESLTKFFDDAKSTPLRLRLYDNFVSKFYDKINQLSVVKYLLASLKDSKDFDESLKYLDDLKAQFQELDSKKQRNNGSKDHGDGILLIDSEIARTYLLKNDLVKARDLLDDLEKTLDKKDSIPLRITNSFYSTNSQYFKFKNDFNSFYYTSLLYLSTLEPSTSITLAERQQLAYDLSISALLGDKIYNFGELLHHPIMETIVNDSNYDWLFQLLNALTVGDFDKFDSLIKVQISKIPILAQHESFLRQKICLMTLIETVFVKNIRMLSFEDISKATHLPKDNVEHLVMRAISLGLLKGSIDQVNELVTISWVQPRIISGDQITKMKDRLVEWNDQVEKLGKKMEARGQSIWV | not soluble |
| MGRLSEVFEVRERYVPQIGRPSYLLVSLPDAGLVGSISGEFLINYLNLREYGEIYSNKHLPPISHVVNGVAKSPIRLYHYDNFLLLHSWIAIPANSINHLANLVVSYAEKYGIQTIISITGVPVPNRLDLEKPTPYWVASSEDFAKELDSLNLMKKFVEGYVSGPYAPILFQSAKKLIRNLLIVVESFLDLPDPEAAAVALDILSKMLGFKVDTSSLLKEAEEIRERIKGLMQQTRQELPNYSGLRPSTYA | not soluble |
| MGSDKIHHHHHHMKKLLNTLYVTSENSYLGLDGENVVVYDDKNEIGRLPLHNLEAIISFGYRGTSPALMGACADRNISLCYLTPQGKFLARVSGKVKGNVVLRKQQFQSSSEDIKCLEIAKNCILGKVYNSRWVLERAIRDHSMQIDVDKVKKASIKLKEFLDYIQNSQSMNQLRGYEGEAASIYFGVFDELILQQKKDFFFQGRNRRPPLDNVNAMLSFTYTLLTTQITSALEVVGLDPYVGYMHTERPGRVSLSLDLIEELRAVMADRFVLSLINKKIVNGKSFTKKENGAVLMDTDIRKKLLSEWQNKKKEIITHPYLNEKVEWGMVPFVQAMLLARYLRGDLDEYPVFLWK | not soluble |
| MKTKVICLVRVSTQDQDYQRQISDLTKYSQARDFVIVDFISEKVSGTKRNEERNGIQELLKRARKKEFQKVIVQEISRLGRNPFQVQRVIEELAELSISVVVQNMNLETLDEGGNRNGFIDLMLSTAVHFSSIERSWIVNRIRSGQKNSKKKIGRPFNTFESKEAVLKKYAAVVRDLKSGISIRKVAKLNDLSTPTIQRVKKLMQEL | not soluble |
| MSQEQVEMIYAKTIEQILEMTGNATANFLPVLGVKSIEMAIGQMEEYLEMLKNLRVDYEKEPNLQSCMSPRLNDSMLIHRNRLARTSKSRLALYRTSPEIARFSRGSPDDIENENLSMSKIRSITEETSILDPTLCMDETTHQRGFLADVSDMNGTVRSRMPSFNFNHISPVPAEKTRRHSVLNVTTDFDVDLSSLCEPSQIEENSGQILFQNVLESALRTPNANNNTILLTDSEVTPVNISNLWNVKLRPGSNRKIDNGIRKEIQRQLACDSQL | not soluble |
| MGSDKIHHHHHHMFGLPGKKSSAVLGVDVSSSSVKLLELSKHGDRYKVESYAVEPLPANAVVEKNITDVEAVGEVLKRVASKSRTSVKQVAVAVSGSAVITKVIQMDGGLNEFEMEDQIALEADQYIPYPLDEVAIDFEVQGPSESNPDQVDVLLAACRKENVDIREDALEIAGLTTKIVDVEAYALERAYSLIEPQLDSQGEELVVAIVDIGATMTTLSVLAEGKTVYTREQIFGGKQLTEEIQRRYGLSLEEAGLAKKQGGLPDDYNEEVLTPFREAVVQQVARALQFFFGASQYNAVDYVVLAGGTASIQGLTEMVEEKTGTPTLVANPFANMAVGSRVNASALSNDAPSLMIACGLAMRSFD | not soluble |
| MGSDKIHHHHHHADTFSVLAHELMHFVYPSGTELLTPNVTKAANKCTQDEVKMMGDSDAVKPIDGWFSKKVTHEDLANIMGLRMVMKMAAKKSVNEEQLKNALETILGGLCIQGKPKNSILPHHHPFEISINTAVRQYPLFSSLYGCRPGDRMFAEAEKFCNPLGGEVNLEDYKIKNDTEDIGGFFNYIMDTANAFNFSIEN | not soluble |
| MGSDKIHHHHHHMILSKTGIRHKEDLVPPANGVDVGIIKIGDGRVMSVTTDPFYFDPVFGYEDSAWFAYHILASDLLTSGANPDYMTVDLNLPLSMTDEEISRMWNAFTEEAARFGTSIITGHTARYAGTSFPMIGGITAMGFIGEDEYVTSAMARPGDKVVLTKTPAIEAAALLTRLFPGTIKAKLGDELFSYGVDLFRKLTTVHESLVCKRFGLRTRVTAMHDVTEGGLLGALFEIADSSGNGIRIHEDSIKVDDYVKRVCSIFSIDPLMAISEGALLITVKPDHAEDLVSSLKANGIDANVIGEMTADPSERIIVGREKRTIGPPQKDPFWTAVEFGISEDWK | not soluble |
| MKMFLAQKGVPFEFVNAREDEEARKKVTALAGSPTAGVVLEWEGGTEVIRGVSPASLHAWLARYRGKEA | soluble |
